Measured values from the domain aggregation screens of Martell et al. (2025).

Experiment: soluble fraction after stress (log2 fold change); higher = more stays soluble; pooled small domains, quantitative proteomics
Conditions: stress: 50 degC
Outline: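 Quantitative proteomics served as the high-throughput read-out for pooled custom libraries of small protein domains. Each was stressed at 50°C. Aggregation propensity is expressed as the base-two log fold change in soluble protein after stress. A higher value means a larger share of the protein remains in solution.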

Sequence	soluble fraction (log2)
HMSKETTYEVLSLKGDEWQTDTIYSDRDEAIEAARNLHGDPHIDGAKVISEVYDDKTGGSKETTIFNT	0.226
HMESGFEAVREVARHGSFANAAKALGVSGPAVSRQVKSLEERLGLVFFHRTTRMVTLTEAGQQLVDTLD	-0.00498
HMAHSWEAIRVKLQQIIDEEDKTKPLNDDQIKEKLAEAGIPNLARRTVAKYRKLLNIPTARFRKR	-0.313
HMRGLFTVYMVGEKASRVGELDEEMVYESRIGDVFALGATSWRIEEITHDRVLVSPAYGQPGRLPFWH	-2.14
HMDRESFIKLGRELARSAFAHVGQKSTEKALETAADVLRLKDPNEVLARLGSAELTGRQVVQAIYPELI	-0.0704
HMASAAHYEGVKTEGESDNDVITRVLTATGVTAEKDDIFVVKSLIADGKYSYTAYVYDGSVWAAMD	-0.0797
HMAASGTVNSGGDPLRVRADPNTSSQILTKLSDGTQVEVLEQAENGWYKIAHEGISGFVSGEYLVVH	0.133
HMFMSKTAMVAIISEADKYGLFNIPEGLSVEKTADEIFEGHIEVDFDKLKNELDFVYKNEALEKQFQEN	-0.534
HMLPIGSSREQVISSLNKMHQDYKEEGNFIYAGYFKQGLPLVPSPRISIALQFNETAHLEKIDATLNYV	-0.305
HMDDFTEVLLQYLKDHDGYSSIHDKTDAETIYNTFGVSKKTFKKAVGDLYKKRLIVLEEEGIRLLG	-0.0665
HMAAVAPPVLERIASDLATRFAGTLSPETVDRYVRESYHLLAERAGITRYLPSLTARFAGDRLDA	0.0481
HMDPVILDINSVKALLGISNKADFMAELSRLVVTEGDKKMIIPLAKEVGIDNVAVYKRNEIENISNYK	-0.1
HMGPAYQTQRQEAFAALSEIAAKNPQLMQVAGDLVFRAADFPMADELADRLAKTLPPQLQDKKGQP	-0.464
HMFELVKISENIPIRDLAETLKTTPNEIIKELMVFGVLANINQTLNFDLASKVADKLGFEVELL	-0.246
HMGPPLISLDDGLAKGFGVGVGDTLTINILGRRITATIASLREIDWQSLRFDFAVVLSPGVLEGA	0.0913
HMGIGSTLTDGVRVYASDDEIVVNAPAESDVRIFNAGGAQLYAGRVADVRVAVAKGLYVVTVDGRSTKITV	0.00295
HMNLTLMDALKAAGLPVDGINLSMVNKMMEEQMPIDKTSLNQMYQLVQDNKDINVTTLVELKRLG	-0.0277
HMDTLKDFISGVSIVFENKYSVGDNVTIGDFRGDVIELGMKTTKIRAYTGEVLIIPNHLVEKVINH	-1.51
HMGISNEETFLLEKMSSGRRYSRKELDNLMGFEKTKTIRLLGSLINKGLVVAEGVNRARRYIR	-1.12
HMNELIGVEQLQDLREAIADHGFAEQRVLNWLYQATKGQVSRLEQLPLPMLTTLHKKLGQWADAEAAASSA	-0.0602
HMGKMTSTLGVHIAAYRKEHGETVAQFASRSGVSVSSIRRIESGISDPSADLVWKISRHMGMTMDDLFKKM	-3.87
HMETINERVNSIIEREGHTVATFAKKIGVPWTTIKNIVSGRNAPSYDIMVKIINAVDWVDANYLVMG	-1.98
HMSNHYETLGVEQTASVDEIKKAYRRLSLQYHPDRNTTSDAVGKFQKINDAHEILSDKQSRTEYDMQLK	0.214
HMFPATAPQLKAVHAILGKQGISDELDKLARVNEWLVGLNKEPVAAISELDKHTTSGLIDHLQGELNE	0.282
HMTDGLTVPMQGVVIRYKAKKGDKVAVGDAVAVLEAMKMEQNIFANKSGTIKEIYIKEGTTVTPGDVLMSI	-0.0052

Sequence	soluble fraction (log2)
HMDSYADVLSDYRGKYKTNTISGLKGLRDKIREDMLAAADSLDFEKAALLRDEMNDLNKKIELKEKT	0.505
HMSSRLEIEITSKIDDLSHTWRAVGAKQPKGNIKSSLLPSGVKVGETFRVEADFLLDGIEIVSVLPP	-1.44
HMDSALKDDLNAFVKKLDVESQTLFMRRYFLGESVSSLASRFEMSEDNVGVKLFRIRAKLKKYLTGKGYD	-2.28
HMSQIAENNQKYVGTIQKVLVEGTSKNNDDMLTGRTDSNKVVIFEGDKKLIGNMVELKIVSEHMWYLKGEL	-0.0348
HMENIDVGQDYKVTMNTIQNLMKTGLVTGTQYKELLREMGVHSGMGAITAQQHQIALDFLNKTMDSA	0.285
HMVEGTVKWFNDEKGFGFIEQEGGKDVFVHFSAINGSGRRTLHEGQRVTMEVTQGQKGPQAENVNP	0.181
HMFQTAADVAYRIISQKILDGEFPPGMKLSRRKMAEVTSVSVIPVIEALKKLEEDGLVESKPQWGSFVTI	-1.27
HMKSAYADVAIAKVQDYVNVRAENNEDSEVLGKLYNNSAATVLETTDDGWYKISSGSVTGYVKSEYVVVG	0.0784
HMDSLSLTELRIDSASPWIGNRISDFSPYAGELVIMIIRGEETIVPNGDTIILDKDLLVIYSS	-2.18
HMPPAPGHDLTEREREVLRLLVEGLSNQEISDRLVISQSTVKNHVSSVLSKLDAANRAEAVALALKNQL	0.00346
HMEPTLVVARDKDAKSPLVAKLMKELGVDAAPRVIVDDSVIGGAKLSHNHTEIDATYKTALINLYQAIT	0.126
HMSEQTLEDVRRLIEHLPESQKEVVKMRYYQDLSFKEIADLKGISINTALGRMHYAINNMRKMAKEYGL	-1.54
HMFPDRLRELRKGRNITLETLAEEMNKHLEPGQKPNTAAQIGNWERGDRSPSYIEVRKLADFFNVSMDFL	-0.636
HMQQDGSSSLGENMLNQELQARGVVPSEIPQEVWERVIQEAGKKSKREIYADIGLGRSLAAGFAQRLAA	0.261
HMVPLTPGELVGTEVRVLWWKEGRGEVIASSRGHQLTLEAHSEDPLRAGSTAVVLEAADDVLVVTS	-0.569
HMAPVVAILTRQLPLPQAQQLAGQTALVRVVKGGPGNEAELEFAGQNIQVKLPPGRQLTAGEMVTVAFALS	0.0876
HMAQASEPMLALIRLKWWEEQINSPVKGDSLPLLSQLNSHISAGYLSRSQVTSLIQRWQDYA	-0.787
HMSQDPLETYYPQWSAAVKQSNPDAEIIRDTDGKYYVEGMTKNRVAVIYENPHLVRLVNATTNVHVE	0.0542
HMSVTIDAGGKVYLQESEIADDQLVPRLVAISNNGYDKPIYLRADKTVGYGRVAEVMSLLNAAGFTKLVLV	-0.0288
HMLTAHEAILKELRKMLLTGVLSPGEAVRPEIIGESFGVSAVPVREALRILEGEGQVLNRPHKGYVVT	-0.568
HMSENEVQAKVKEIVDRYAGDKSALIAILQDVQDEYRYLPKEALVSIQQQMNIPLSRVYEVATFYDAFS	-0.424
HMVAAITDLPVKSVNGRQMYYYVVRKGETVYSLTHTLGITHDRLVKANRSVEDGLRAGQILYFPVSEFG	-1.42
HMKMLSIQRREAIRALLLEKESITIAEVMEKFQISVETARRDFDALADEGFLNKVYGGATLKK	-1.37
HMSTRKAFVNGDGVRLRSGPGTNHSIRASLTKGQTVFVTGTKDGWASVSVQGGASGWVSADLLKYE	0.232
HMEIDFDKINSIFNDANKLYEEGDYFEANNLYKNIVSSNIISKDLYYNLGLSYAKIGSNGYAILWYERALN	-0.189

Sequence	soluble fraction (log2)
HMGTTMLEVPNFVGEVFKEIDPEKYPNLRLVDSDYTYSNEYEAGKVISQDPVARTQVAEGSTVKLVIS	0.133
HMGTVQSVDRALLLLSEIGREPGGLVDLSTRVRLATSTTGRILATLEHAGAVVRGDDGIYHIGPLVHGMVS	-0.839
HMGDVATVKLDNNGLLNMRKSDARGADIVARIPNGTVVQVLNRETEWTQVRYDGKEGYVMSSFLQFAE	0.199
HMPYNNLADAPASWKKLDDTPLTLGQVNWIAKIYDALVAKGMEKGAAAGTAISRFKKSFKVADGKWVQV	-0.0698
HMGAYIPSYAPVDINAATHTVVRGDTVYNISKRYHVSQEDFRAWNGMADNTLSIGQVVKVKPAGYTAPK	-0.087
HMSDNLTIVRAVYSGLSQRQAAATYHVSRNTVSLLLRHARNRGWLTLEDLAQLDNAAFSKSL	-4.13
HMEDDIRSSIRTLDQFISKNQITLSKDVKNYILQLLSNDRMVTINELEKIKIYYDSNENIDLDTVKILLN	-0.754
HMSVPEDLYFRELEVEGNKVRISGIASTNNRVSALMRNFDQSEWFRDPSLIKVESKSPGVNEFEIVMTRI	0.0509
HMLAAGTSLTVDTESSNLNIRQEPSTEGVILGKAAKGEVVTLVEQSSDEWWKIKTKDGEEGYAYARYLR	0.203
HMIGVQEFAMTYALTRRETEITQLIIQGKSNAMIAGELFISETTVKKHVSNIFEKTGVSRREELMVRVQAE	-1.44
HMRQDEKTLLYWIGAQVKREGKLIKTSTAQYLVEKTGTDMENLEKELEKLFAYTLDEKEITPAAIDEI	-1.8
HMENPPISVVIPPSFRGQRIDKALGSLIGDYSRSKIQQWLQSGLVQSAGEPLLPKYTVLGNEQILIAVPS	0.00382
HMGQPGNWTSYVFKNSDTEPAKPTSSGPIPSGWNDAPTGVGIWWMSKATIDASTGKAGSWSTPIRVTGED	0.0592
HMREKLKEYVHLLFAGTVGKEDMEQEILQNTLDRFDDWVARGFSEEDAYRKAVSGIGDIDALLG	-0.288
HMTATKDLPFSTFITEVEKGNITSVDIKGNQIEGTFSNGAKFKTYSPNYPNLVERLADKGVAISAGPS	0.047
HMDAYSYFIRTYPLVDDPLIGDIRRIFAETHDGNPAGDADVRHILWRLLFERELYPTLDEATADWY	-2.54
HMQYDSYTVEEPAKLLDWLLAHLRQSRTKIKATLQGHGIKVNGKTVTQFDYPLEPGMKIRVSLTK	0.159
HMTESIHVGSKVTINNNAKRWATGQNIYSGVKGKTYTVIQMNGSRLLLDKVISWINKGDVHLPGS	-1.64
HMWVETITTKAGITKYKFQERYTDTYSGKTKRVSVTYTSNSRQAYKLAQAELQKKIDLATNTD	-0.849
HMDFDVELTSAGTAKVKVIKAVREATGLGLKEAKDLVDNAPSIVKEGLDEAAANDLKAALEETGASVTL	0.117
HMTTLAADFNSDGRVDIGDLSILAGNWGKSRTNEVDFNKYGDADYNGRIDIIDLSILATQFGQTDNSN	-0.0889
HMNDLIFSTLAEYDRDTITEIISVVDNTRGIGYEVELVRKDLIAMAAQAEARRDYLPSVIGDVEVFKRNLL	0.0286
HMFEMPTSLVRTLSAIAIKQPVMQSEIIKLRGAGAYDHIKELIIRELVHRKEEGRSPILTTTKKFQEYFRL	-2.33
HMEDINAVLAENLRRLRESRRLSLDAVARLTGVSKSMLGQIERGEVNPTVSTMWKIAGGLKVNFTALFRRE	-1.47
HMAKNYYEILGLKSDATLPEIKKAFKKLSKKFHPDKNRDDDGYFESMFKSINEAYQVLIDEDKRATFDSHH	-0.59
